Measured values taken from article doi:10.1101/2023.06.15.545061.

Molecular target: biotinylated 10-mer C-terminal PBM peptide of DGKζ (human) (UniProt Q13574)
Sequence (Q13574 whole entry, looked up, tested part not stated): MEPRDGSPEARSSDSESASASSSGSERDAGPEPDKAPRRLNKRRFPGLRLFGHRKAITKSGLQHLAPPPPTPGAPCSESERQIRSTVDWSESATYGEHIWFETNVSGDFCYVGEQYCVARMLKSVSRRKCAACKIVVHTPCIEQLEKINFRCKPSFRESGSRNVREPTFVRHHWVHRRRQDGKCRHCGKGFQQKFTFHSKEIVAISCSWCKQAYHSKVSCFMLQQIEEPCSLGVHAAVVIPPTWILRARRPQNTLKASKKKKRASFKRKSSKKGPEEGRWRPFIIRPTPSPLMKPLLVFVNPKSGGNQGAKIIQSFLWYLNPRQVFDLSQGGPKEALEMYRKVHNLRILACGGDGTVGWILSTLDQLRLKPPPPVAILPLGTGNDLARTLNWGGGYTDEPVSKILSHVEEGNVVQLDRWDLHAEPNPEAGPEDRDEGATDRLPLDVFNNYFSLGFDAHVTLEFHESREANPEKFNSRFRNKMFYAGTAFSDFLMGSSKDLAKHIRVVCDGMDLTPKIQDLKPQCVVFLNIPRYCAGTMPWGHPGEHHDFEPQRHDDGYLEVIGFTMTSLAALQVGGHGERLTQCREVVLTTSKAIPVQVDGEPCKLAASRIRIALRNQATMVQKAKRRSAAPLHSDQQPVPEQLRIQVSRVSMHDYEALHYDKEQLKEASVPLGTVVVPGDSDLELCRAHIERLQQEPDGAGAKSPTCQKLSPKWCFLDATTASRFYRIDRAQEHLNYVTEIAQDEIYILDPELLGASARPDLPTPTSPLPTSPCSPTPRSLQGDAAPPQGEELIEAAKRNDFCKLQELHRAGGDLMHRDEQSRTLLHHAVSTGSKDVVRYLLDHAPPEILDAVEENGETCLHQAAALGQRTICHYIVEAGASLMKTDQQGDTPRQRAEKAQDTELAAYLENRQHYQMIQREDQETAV

Kd: 24 µM
Substance: SCRIB
